Measured values: US20240218057A1 (ROCKEFELLER UNIVERSITY, published 2024)

B1: C1030 (antibody, V domains shown)
VH: EVQLVESGGGLVQPGGSLRLSCEASGVIVSSNYMNWVRQAPGKGPEWVSVLYAGGSTFYADSVKGRFTISRDDSKNTLFLQMNNLRAEDTAVYFCARDLIAFGMDVWGQGTTVTVSS
VL: DIQLTQSPSFLSASVGDRVTITCRASQGINSDLAWYQQKPGKAPKLLIYGASTLQSGVPSRFSGSGSGTEFSLTVSSLQPEDFATYYCQQLNSYRRFGGGTKVEIK
B2: C1058 (antibody, V domains shown)
VH: EVQLVESGGGLVQPGGSLRLSCAASGIIVSSNYMNWVRQVPGKGLEWVSVLYSGGSTFYADSVRGRFTISRDNSKNTLFLQMNSLRPEDTAVYYCARDFREGAFDIWGQGTMVTV
VL: DIQLTQSPSFLSASVGDRVTITCRASQGISSYLAWYQQKPGKAPNLLIYAASTLQSGVPSRFSGSGSGTDFTLTISSLQPEDFATYYCQQLNSYSPLFGQGTRLEIK
B3: C1059 (antibody, V domains shown)
VH: EVQLVESGGGLVQPGGSLRLSCAASGVTVSYNYMHWVRQAPGKGLEWVSVFFPGGSIFYADSVKGRFSISRDNSHNTLYLQMNNLRPEDTAVYYCARDFREGAIDLWGQGTMVTVSS
VL: DIQLTQSPSFLSASVEDRVTITCRASQGISSYLAWYQQKPGKAPKLLIYGASTLQSGVPSRFSGSGSGTEFTLTISSLQPEDSATYYCQQLNSYPPLFGQGTRLEIK
B4: C1050 (antibody, V domains shown)
VH: EVQLVESGGGLVQPGRSLRLSCAASGFTFDDYGMHWVRQAPGKGLEWVSGISWNGDSIGYADSVKGRFTISRDNAKTSLYLQMNRLRAEDTALYYCAKAASRSTRIGGAFDIWGQGTMVTVSS
VL: QSALTQPASVSGSPGQSITISCTGTSSDVGGYNLVSWYQQHPGKAPKLMIYEGSKRPSGVSNRFSGSKSGNTASLTISGLQAEDEADYYCCSYAYSFTNVFGTGTKVTV
B5: C1051 (antibody, V domains shown)
VH: EVQLVESGGGLVQPGRSLRLSCVASGFTFDDYGLHWVRQAPGKGLEWVSGISWNSDSIGYADSVKGRFAISRDNARTSLYLQMNRLRAEDTALYYCAKAASRSTRIGGAFDIWGQGTMVTVSS
VL: QSALTQPASVSGSPGQSITISCTGTSSDVGGYNLVSWYQQYPGKAPKLMIYEDSKRPSGVSHRFSGSKSGNTASLTISGLQAEDEADYYCCSYAFSFTNVFGTGTKVTV
B6: C1043 (antibody, V domains shown)
VH: EVQLVESGGGLVQPGRSLRLSCAASGFIFDNYAMHWVRQAPGKGLEWVSGISWNSDSIGYADSVKGRFTISRDNAKNSLYLQMSSLRAEDTALYYCAKDLLGNYYYYTLDVWGQGTTVTVSS
VL: QSALTQPASVSGSPGQSITISCTGTSSDIGGNNYVSWYQQHPGKAPRLMIFDVSYRPSGVSNRFSGSKSGNTASLTISGLQAEDEADYYCISYTTSSTLGVFGGGTKLTVL
B7: C1040 (antibody, V domains shown)
VH: QVQLVESGGGVVQPGRSLRLSCAASGFSFINYNMHWVRQAPGKGLEWVAVIWYDGSNKYYADSVKGRFTISRDNSKNTLYLQMNSLRVEDTAVYYCARDPAITEAEIDYWGQGTLVTVSS
VL: DVVMTQSPLSLPVTLGQAASISCRSSQSLVHSDGNTYLNWFQQRPGQSPRRLIYRVSNRDSGVPDRFSASGSGTDFTLKISRVEAEDVGVYYCMQGTHWPWTFGQGTKVEIK
B8: C1055 (antibody, V domains shown)
VH: QVQLVESGGGVVQPGRSLRLSCAASGFTFSTYGMNWVRQAPGKGLEWVALILYDGSDKYYADSVKSRFTISRDNSRNTLYLQMTSLRAEDTAVYYCAKALSSTYYYDASGPDAFDIWGQGTMVTVSS
VL: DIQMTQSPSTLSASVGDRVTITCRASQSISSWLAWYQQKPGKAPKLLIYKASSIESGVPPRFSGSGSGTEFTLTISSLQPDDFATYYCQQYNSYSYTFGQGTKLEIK
B9: C1053 (antibody, V domains shown)
VH: EVQLLESGGGLVQPGGSLRLSCAASGFTFSSYAMNWVRQAPGKGLEWVSAISGSGGGTYYADSVKGRFTISRDNSKNTLYLQMDSLRAEDTAVYYCAKDVPIEQQLVPTFDYWGQGALVTVSS
VL: DIQMTQSPSSLSASVGDRVTITCRASQSISRYLNWYQQKPGKAPKLLIYGASSLQSGVPSRFSGSGSGTDFTLTISSLQPEDFATYWCQQSYSTLSITFGQGTRLEIK
B10: C1061 (antibody, V domains shown)
VH: EVQLVESGGGLVQPGGSLRLSCAASGFTFSRYDMHWVRQGTGKGLEWVSAIGTSGDTYYPDSVKGRFTISRENAKNSLYLQMNSLRAGDTAVYYCARGGLQTTTWLFDYWGQGTLVTVSS
VL: DIQMTQSPSSLSASVGDRVTITCRASQSISRYLNWYQQKPGKAPKLLIYAASSLQSGVPSRFSGSGAGTDFTLTISSLQPEDFAIYYCQQSYSNPPITFGQGTRLEIK
B11: C1054 (antibody, V domains shown)
VH: EVQLLESGGGLVQPGGSLRLSCVVSGFTFSSYAMNWVRQAPGKGLEWVSVIGGSGDGRYYADSVKGRFTISRDNSKNTLYLQMNSLRGDDTAVYYCARDVPVEQQLVPTFDYWGQGTLVTVSS
VL: DIQMTQSPSSLSASVGDRVTITCRASQSISRYLNWYQQKPGKAPKLLIYAASSLQSGVPSRFSGSGSGTEFTLTISSLQPEDFATYYCQQSYSTLSITFGQGTRLEIK
B12: C1062 (antibody, V domains shown)
VH: EVQLVESGGGLVQPGGSLRLSCAASGFTFSNYDMHWVRQTTGKGLEWVSAIGTAGDTYYPGSVKGRFTMSRENAKNSLYLQMNSLRAGDTAVYYCARGGLQTTTWLFDNWGQGTLVTVSS
VL: DIQMTQSPSSLSASVGDRVTITCRASQTISRYLNWYQQKPGKAPKLLIYAASSLQSGVPSRFSGSGSGTDFTLTISSLQPEDFATYYCQQSYTMPPITFGQGTRLEIK
B13: C1049 (antibody, V domains shown)
VH: EVQLVQSGAEVKKPGESLKISCKSSGYSFISHWIGWVRQMPGKGLEWMGIIWPGDSDTRYSPSFQGQVTISVDKSITTVYLQWSSLKAADTAMYYCARRGSSWEVDYWGQGTLVTVSS
VL: not shown
B14: C1047 (antibody, V domains shown)
VH: EVQLVQSGAEVKKPGESLKISCKGSGYSFISYWIVWVRQMPGKGLEWIGIIYPGDSDTIYSPSFQGQVTLSADKSISTAYLQWSSLKASDTAIYYCAKMVTSGTSYYETRGYASSGPFDNWGQGTLVTVSS
VL: DIQLTQSPSSLSASVGDRVTITCRASQGISSALAWYQQKPGKAPKLLIYDASSLESGVPSRFSGSGSGTDFTLTISSLQPEDFATYYCQQSDNFGPGTKVDI
B15: C1048 (antibody, V domains shown)
VH: EVQLVQSGAEVKKPGESLKISCKVSGYSFISHWIGWVRQMPGKGLEWMGIIYPGDSDTRYSPSFQGQVTISADKSISTAYLQWSSLKASDTAMYYCARRGASWELDYWGQGTLVTV
VL: QSVLTQPPSASGTPGQRVTISCSGSSSNIGSNPVSWYQQLPGPAPQLLIYGNDQRPSGVPDRFSGSKSGTSASLAISGLQSEDEADYYCAAWDDSLNGYVFGTGTKVTVL
B16: C1046 (antibody, V domains shown)
VH: EVQLVQSGAEVKKPGESLKISCKGSGYSFTSYWIGWVRQMPGKGLEWMGIIYPGDSDTRYSPSFQGQVTISADKSISTAYLQWSSLKASDTAMYYCARMVTSGTYYYDNSGYSSSGPFDYWGQGTLVTVSS
VL: DIQLTQSPSSLSASVGDRVTITCRASQGISSALAWYQQKPGKAPKLLIYDASSLESGVPSRFSGSGSGTDFTLTISSLQPEDFATYYCQQFNNFGPGTKVDIK
B17: C1052 (antibody, V domains shown)
VH: QVQLVQSGAEVKKPGASVKVSCKVSGYTLSELSMHWVRQAPGEGLEWLGGFDPEDGETINAQKFQGRVTMTEDRSTDTAYMELSSLRSEDTAVYYCATRGRYCSSGNCYYHHWGQGTLVTVSS
VL: DIQMTQSPSTLSASVGDRVIITCRASQNIHNWLAWYQQKPGKAPKLLIYKASSLESGVPSRFSGSGSGTEFTLTISSLQPDDFATYFCQQYHSYSWTFGQGTKVEIK
B18: C1065 (antibody, V domains shown)
VH: EVQLVESGGGLIQPGGSLRLSCAASGFTVSRNYMSWVRQAPGKGLEWVSVIYSGGSTFYADSVKGRFTISRDNSKNTLYLQMNSLRAEDTAVYYCARGLPTGEGWNYFDYWGQGTLVTVSS
VL: QSALTQPASVSGSPGQSITISCTGTSSDIGGYHYVSWYQQHPGKAPKLMIYDVSNRPSGISNRFSGSKSGNTASLTISGLQAEDEADYYCSSYASSSVIFGGGTKLTVL
B19: C1063 (antibody, V domains shown)
VH: EVQLVQSGAEVKKPGESLKISCKGYGNSFNNYWIAWVRQMPVKGLEWMGVINPGDSDTRYSPSFQGQVTISVDKSISTAYLQWSSLKASDTAMYYCARTWSPAAVAFFDSWGQGTLVTVS
VL: NFMLTQPHSVSESPGKTVTISCTRSSDSIGSNYVQWYQQRPGSSPTIVIYEDSQRPSGVPHRFSGSFDSSSNSASLTISGLKTEDEADYYCQSWDSGNLVFGGGTKLTVL
B20: C1068 (antibody, V domains shown)
VH: QVQLVESGGGVVQPGRSLRLSCAASGFTFSTFAMHWVRQAPGKGLEWVAVTSYDGSNKYYADSVKGRFTISRDNSKNTLYLQMNSLRAEDTAVYYCARGLLWFGESEYFQHWGQGTLVTVSS
VL: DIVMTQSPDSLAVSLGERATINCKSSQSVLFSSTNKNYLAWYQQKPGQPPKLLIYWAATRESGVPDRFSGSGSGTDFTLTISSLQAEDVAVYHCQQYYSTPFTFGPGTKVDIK
B21: C1067 (antibody, V domains shown)
VH: QVQLVQSGAEVKKPGASVKVSCKASRDTFTTHYIHWVRQAPGQGLEWMGIINPSGGSISYAQKFQGRVTMTRDTSTSTVYMELSSLRSEDTAVYYCARGGIVPHLSNWFDPWGQGTLVTVSS
VL: EIVLTQSPGTLSLSPGERATLSCRASQSVSSSYLAWYQQKPGQAPRLLIYGASSRATGIPDRFTGSGSGTDFTLTISRLEPEDFAVYYCQQYGRSSGFTFGPGTKVDIK
B22: C1062 (antibody, V domains shown)
VH: EVQLVESGGGLVQPGGSLRLSCAASGFTFSNYDMHWVRQTTGKGLEWVSAIGTAGDTYYPGSVKGRFTMSRENAKNSLYLQMNSLRAGDTAVYYCARGGLQTTTWLFDNWGQGTLVTVSS
VL: DIQMTQSPSSLSASVGDRVTITCRASQTISRYLNWYQQKPGKAPKLLIYAASSLQSGVPSRFSGSGSGTDFTLTISSLQPEDFATYYCQQSYTMPPITFGQGTRLEIK
B23: C1066 (antibody, V domains shown)
VH: EVQLVESGGGLVQPGRSLRLSCAASGFMFDDYAMHWVRQAPGKGLEWVSGINWSSADIGYVDSVKGRFTISRDNAKNSLYLQMNSLRTEDTAFYYCAKGWFGELLGGSDSWGQGTLVTVSS
VL: QLVLTQSSSASASLGSSVKLTCTLNSGHSSYIIAWHQQQPGKAPRYLMKLEGSGSYNKGSGVPDRFSGSSSGADRYLTISNLQFEDEADYYCATWDSNTQVFGGGTKLTVL

target: T1, SARS-COV-2 RBD (SARS-COV-2, UniProt P0DTC2 319-539); assay: ELISA, RBD coated on plate
T1 construct: also called WT RBD

Point of comparison: B17, EC50 2.64 ng/mL. Against it:
- B1 — within 1.5-fold, 2.78 ng/mL
- B2 — within 1.5-fold, 2.13 ng/mL
- B3 — within 1.5-fold, 2.17 ng/mL
- B4 — within 1.5-fold, 2.78 ng/mL
- B5 — 1.9-fold lower, 1.4 ng/mL
- B6 — within 1.5-fold, 2.77 ng/mL
- B7 — within 1.5-fold, 2.08 ng/mL
- B8 — within 1.5-fold, 2.71 ng/mL
- B9 — 1.6-fold higher, 4.13 ng/mL
- B10 — within 1.5-fold, 2.26 ng/mL
- B11 — within 1.5-fold, 1.84 ng/mL
- B12 — within 1.5-fold, 2.61 ng/mL
- B13 — within 1.5-fold, 2.81 ng/mL
- B14 — within 1.5-fold, 2.46 ng/mL
- B15 — within 1.5-fold, 2.41 ng/mL
- B16 — within 1.5-fold, 3.8 ng/mL

target: T2, SARS-COV-2 RBD (SARS-COV-2, UniProt P0DTC2 319-539); assay: ELISA, RBD coated on plate
T2 construct: also called WT RBD

Point of comparison: B21, EC50 2.93 ng/mL. Against it:
- B18 — within 1.5-fold, 3.52 ng/mL
- B19 — within 1.5-fold, 3.04 ng/mL
- B20 — within 1.5-fold, 2.48 ng/mL
- B22 — within 1.5-fold, 2.61 ng/mL
- B23 — within 1.5-fold, 3.01 ng/mL
